# Data reported in paper PMC5578693, “The role of the C-terminal D0 domain of flagellin in activation of Toll like receptor 5” (PLoS Pathogens, 2017).
# B1: S. typhimurium flagellin FliC, wild type (natural protein, UniProt P06179 1-495, looked up)
# chain: MAQVINTNSLSLLTQNNLNKSQSALGTAIERLSSGLRINSAKDDAAGQAIANRFTANIKGLTQASRNANDGISIAQTTEGALNEINNNLQRVRELAVQSANSTNSQSDLDSIQAEITQRLNEIDRVSGQTQFNGVKVLAQDNTLTIQVGANDGETIDIDLKQINSQTLGLDTLNVQQKYKVSDTAATVTGYADTTIALDNSTFKASATGLGGTDQKIDGDLKFDDTTGKYYAKVTVTGGTGKDGYYEVSVDKTNGEVTLAGGATSPLTGGLPATATEDVKNVQVANADLTEAKAALTAAGVTGTASVVKMSYTDNNGKTIDGGLAVKVGDDYYSATQNKDGSISINTTKYTADDGTSKTALNKLGGADGKTEVVSIGGKTYAASKAEGHNFKAQPDLAEAAATTTENPLQKIDAALAQVDTLRSDLGAVQNRFNSAITNLGNTVNNLTSARSRIEDSDYATEVSNMSRAQILQQAGTSVLAQANQVPQNVLSLLR
# notes: flagellin FliC of S. typhimurium (SaTy), UniProt P06179; cloned into pET19b; also called SaTy; wild-type flagellin; source: E. coli BL21 (DE3) pLysS, purified (Ni-NTA); not shown: His10, N-terminal, kept
# Key:
# [1] = molecular target: soluble hTLR5 ectodomain fused to the Fc region of human IgG1 (human) (UniProt O60602)
# Chain of soluble hTLR5 ectodomain fused to the Fc region of human IgG1 (human) (O60602 21-639): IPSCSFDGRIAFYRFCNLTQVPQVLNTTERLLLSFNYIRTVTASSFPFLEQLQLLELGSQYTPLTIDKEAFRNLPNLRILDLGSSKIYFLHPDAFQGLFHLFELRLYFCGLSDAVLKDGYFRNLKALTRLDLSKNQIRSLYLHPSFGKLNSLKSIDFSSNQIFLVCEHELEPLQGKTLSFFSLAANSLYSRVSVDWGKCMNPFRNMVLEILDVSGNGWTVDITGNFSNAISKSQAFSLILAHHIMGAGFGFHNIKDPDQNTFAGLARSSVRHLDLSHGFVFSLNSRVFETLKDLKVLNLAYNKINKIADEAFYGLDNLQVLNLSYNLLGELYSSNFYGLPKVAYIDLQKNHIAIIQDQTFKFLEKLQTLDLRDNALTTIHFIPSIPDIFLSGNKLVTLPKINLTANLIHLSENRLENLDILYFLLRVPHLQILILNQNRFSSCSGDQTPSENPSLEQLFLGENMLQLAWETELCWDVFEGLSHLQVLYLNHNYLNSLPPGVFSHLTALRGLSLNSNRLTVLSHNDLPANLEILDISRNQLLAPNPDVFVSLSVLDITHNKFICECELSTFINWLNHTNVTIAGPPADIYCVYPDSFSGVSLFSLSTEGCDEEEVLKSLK
# [2] = molecular target: T1, soluble hTLR5 ectodomain fused to the Fc region of human IgG1 (human, UniProt O60602 21-639); assay: co-IP; 10 ug hTLR5-Fc bound to protein A-coupled Dynabeads (control: beads with water only); 20 ug wt or mutant flagellin added, 1 h at room temperature; washed 3 times with 1 x PBS, 0.02% Tween 20, pH 7.5; eluted in 0.1% SDS at 95 C; flagellin detected by Western blot with anti-His antibodies; conditions: both partners purified
# T1 construct: human Toll-like receptor 5, ectodomain; UniProtKB O60602; In the functional rows this molecule stands for human TLR5, which was there full length on HEK293 cells (pUNO-hTLR5) or endogenous in A549 cells; also called hTLR5-Fc; source: bought: Invivogen
# T1 sequence (O60602 21-639): as above
Molecule,"TLR5 activation: NF-kB reporter in A549 cells (SEAP) and in hTLR5-transfected HEK293 cells (luciferase, 0-1000 ng/ml); lowest active concentration [1] [ng/mL]",binding result [2]
"dimSFΔD0, two SFΔD0 domains tethered into a single polypeptide chain by a 27 amino acid peptide linker",50,–
B1,–,binds
